Measurements published in patent US20230023414A1, “METHODS AND DEVICES FOR TREATING A DISEASE WITH BIOTHERAPEUTICS” (PROGENITY, INC., priority 2018, published 2023).
Several values for one entry are separate records, joined by “and”; a condition that tells them apart may be missing. Equal values may be shown once. Read-outs that look alike come from different tables or passages of the source. Marks after values point to notes of the source that are not given here.

Experiments:
[1] = cited from earlier work; for Baseline dose: Bioavail.: dose info for non-approved agents from clinical trial information
[2] = pig, in vivo; for (AUC)T0-T240 h ± SEM / Tmax: 1.2 mg
[3] = Pharmacokinetics (blood insulin) of regular human insulin (NOVOLIN R) after subcutaneous or intra-jejunal jet delivery in swine; type: in vivo, Yorkshire female swine; details: for Cmax / Tmax: blood insulin
Procedure: (§1) A total of 18 Yorkshire female swine in good health and weighing 60-70 kg each were included in this study. Swine were divided into two groups with 9 animals per group. […] A sham surgical laparotomy was performed. […] The jet delivery device was configured with the single nozzle in an axial orientation.
Swine were divided into two groups with 9 animals per group. […] In all 18 animals, a laparotomy procedure was performed to expose the abdominal cavity. Animals remained under anesthesia during the entire procedure for the PK/PD study.
For the laparotomy in group 02, a small segment of the jejunal mucosa and serosa was exposed by midline laparotomy and the jet delivery device was inserted through antimesenteric incision.
(§2) Blood samples were kept on wet ice until centrifugation and separation of plasma. […] Glucose was monitored every five (5) minutes during the study by portable glucose analyzer (StatStrip (SS) hospital glucose monitoring system (Nova Biomedical, Waltham, Mass.)). At each time point, approximate 0.1 mL of blood was drawn and immediately placed on a glucose monitoring test strip, and the whole blood glucose concentration was measured by the SS in triplicate.
The animals were anesthetized for the entire ECP.

[4] = test system: blood glucose; assay: Euglycemic clamp procedure: blood glucose and dextrose infusion after NOVOLIN R SC or IJ in swine; type: in vivo, Yorkshire female swine; details: for mean blood glucose level: euglycemic clamp, swine
Procedure: as §1, with “orientation. The device was held in place during the laparotomy insertion, and the nozzle outlet was directed to face the jejunal wall to direct the jet of the NOVOLIN® R to the GI tract.” for “orientation.”
as §2
A euglycemic clamp procedure (ECP) was employed to compare pharmacokinetics and pharmacodynamics of regular human Insulin (NOVOLIN® R) delivered subcutaneously (SC) in the neck versus intra-jejunally (IJ) by the jet delivery device in the small intestine. ECP was used to quantify the amount of glucose required to maintain normoglycemia after exogenous bolus of insulin. […] The animals were anesthetized for the entire ECP.

[5] = cited from earlier work
[6] = IJ administration by jet delivery device, swine, Average
[7] = IJ administration by jet delivery device, swine, individual animals
[8] = SC administration, swine, Average
[9] = SC administration, swine, individual animals

CC[C@H](C)[C@H](NC(=O)[C@H](Cc1ccccc1)NC(=O)[C@H](CCC(=O)O)NC(=O)[C@H](CCCCNC(=O)COCCOCCNC(=O)COCCOCCNC(=O)CC[C@H](NC(=O)CCCCCCCCCCCCCCCCC(=O)O)C(=O)O)NC(=O)[C@H](C)NC(=O)[C@H](C)NC(=O)[C@H](CCC(N)=O)NC(=O)CNC(=O)[C@H](CCC(=O)O)NC(=O)[C@H](CC(C)C)NC(=O)[C@H](Cc1ccc(O)cc1)NC(=O)[C@H](CO)NC(=O)[C@H](CO)NC(=O)[C@@H](NC(=O)[C@H](CC(=O)O)NC(=O)[C@H](CO)NC(=O)[C@@H](NC(=O)[C@H](Cc1ccccc1)NC(=O)[C@@H](NC(=O)CNC(=O)[C@H](CCC(=O)O)NC(=O)C(C)(C)NC(=O)[C@@H](N)Cc1cnc[nH]1)[C@@H](C)O)[C@@H](C)O)C(C)C)C(=O)N[C@@H](C)C(=O)N[C@@H](Cc1c[nH]c2ccccc12)C(=O)N[C@@H](CC(C)C)C(=O)N[C@H](C(=O)N[C@@H](CCCNC(=N)N)C(=O)NCC(=O)N[C@@H](CCCNC(=N)N)C(=O)NCC(=O)O)C(C)C [Semaglutide]
Approved Dosing Info: Bio Avail ([1]; SC administration): 89%

CC[C@H](C)[C@H](NC(=O)[C@H](CCC(=O)O)NC(=O)[C@H](CO)NC(=O)[C@@H](NC(=O)[C@@H](N)CO)C(C)C)C(=O)N[C@@H](CCC(N)=O)C(=O)N[C@@H](CC(C)C)C(=O)N[C@@H](CCSC)C(=O)N[C@@H](Cc1cnc[nH]1)C(=O)N[C@@H](CC(N)=O)C(=O)N[C@@H](CC(C)C)C(=O)NCC(=O)N[C@@H](CCCCN)C(=O)N[C@@H](Cc1cnc[nH]1)C(=O)N[C@@H](CC(C)C)C(=O)N[C@@H](CC(N)=O)C(=O)N[C@@H](CO)C(=O)N[C@@H](CCSC)C(=O)N[C@@H](CCC(=O)O)C(=O)N[C@@H](CCCN=C(N)N)C(=O)N[C@H](C(=O)N[C@@H](CCC(=O)O)C(=O)N[C@@H](Cc1c[nH]c2ccccc12)C(=O)N[C@@H](CC(C)C)C(=O)N[C@@H](CCCN=C(N)N)C(=O)N[C@@H](CCCCN)C(=O)N[C@@H](CCCCN)C(=O)N[C@@H](CC(C)C)C(=O)N[C@@H](CCC(N)=O)C(=O)N[C@@H](CC(=O)O)C(=O)N[C@H](C(=O)N[C@@H](Cc1cnc[nH]1)C(=O)N[C@@H](CC(N)=O)C(=O)N[C@@H](Cc1ccccc1)C(=O)O)C(C)C)C(C)C [teriparatide]
Approved Dosing Info: Bio Avail ([1]; SC administration): 95%

Dulaglutide: long-acting GLP-1 receptor agonist, about 63 kDa; GLP-1 analogue linked to modified human IgG4 Fc; TRULICITY solution 3 mg/mL
AUCID (±SEM) [2]: 3890.00 ± 94.73 ng·h/mL
Bioavailability relative to SC [2]: 49.11 ± 0.08% ^a
(AUC)T0-T240 h ± SEM [2]: 4355.86 ± 1094.57 ^a ng · hr/mL
Tmax [2]: 8 h
Bioavailability relative to IV ([2]; iv): 100%
(AUC)T0-T240 h ± SEM ([2]; iv): 16429.33 ± 600.93 ng·h/mL
Tmax ([2]; iv): 1 h
Bioavailability relative to SC ([2]; sc): 100%
(AUC)T0-T240 h ± SEM ([2]; sc): 8869 ± 887.33 ng·h/mL
Tmax ([2]; sc): 6 h
Approved Dosing Info: Bio Avail ([1]; SC administration): 65%

Novolin® R: regular human insulin (recombinant), aqueous solution 100 units/mL with glycerol, metacresol, zinc chloride, pH 7.4
blood insulin level ([3]; animal 18P18, SC administration group): significantly higher than the rest of the animals in the group
Cmax [3, 6]: 77.40 uIU/mL
Tmax [3, 6]: 55.63 min
Cmax [3, 7]: 40.93 uIU/mL and 96.77 uIU/mL and 5.03 uIU/mL and 7.96 uIU/mL and 48.77 uIU/mL and 85.38 uIU/mL and 207.96 uIU/mL and 126.39 uIU/mL
Tmax [3, 7]: 20 min and 50 min and 90 min (2×) and 40 min (3×)
Cmax [3, 8]: 202.94 uIU/mL
Tmax [3, 8]: 87.14 min
Cmax [3, 9]: 451.00 uIU/mL and 60.74 uIU/mL and 354.00 uIU/mL and 356.60 uIU/mL and 65.71 uIU/mL and 59.18 uIU/mL and 73.34 uIU/mL
Tmax [3, 9]: 50 min (2×) and 180 min and 105 min and 30 min and 120 min
time to maximum plasma concentration (Tmax) ([3]; jejunum administration group): 0.9272 h
time to maximum plasma concentration (Tmax) ([3]; subcutaneous administration group): 1.452 h
maximum plasma concentration Cmax, SC group versus IJ group ([3]; swine): higher than that of the IJ administration group
AUC of blood insulin, SC group versus IJ group ([3]; swine, AUC0-420 min): higher than that of the IJ administration group
mean dextrose infusion rate, IJ versus SC group ([4]; 75 minutes to 420 minutes post-administration): higher in the SC administration group
mean blood glucose level ([4]; IJ administration group (jet delivery device)): 89.6 mg/dL
mean blood glucose level ([4]; SC administration group): 83.5 mg/dL
mean dextrose infusion rate, IJ versus SC group ([4]; first 70 minutes after administration): higher in the IJ administration group

alirocumab
Approved Dosing Info: Bio Avail ([1]; SC administration): 85%

certolizumab pegol
Approved Dosing Info: Bio Avail ([1]; SC administration): 80%

dalteparin
bioavailability by SC injection ([1]; SC injection): approximately 87%
half-life ([1]; in vivo): 3 to 5 h
stability at room temperature [5]: stable at room temperature

denosumab
Approved Dosing Info: Bio Avail ([1]; SC administration): 61%

etanercept
Approved Dosing Info: Bio Avail ([1]; SC administration): 58%

glucagon (SC)
Baseline dose: Bioavail. ([1]; SC administration): 100.0%

golimumab
Approved Dosing Info: Bio Avail ([1]; SC administration): 51%

natalizumab
Approved Dosing Info: Bio Avail ([1]; IV administration): 100%

sargramostim
Approved Dosing Info: Bio Avail ([1]; IV administration): 100%

secukinumab
Approved Dosing Info: Bio Avail ([1]; SC administration): 73%

somatropin
Baseline dose: Bioavail. ([1]; SC administration): 80.5%

tocilizumab
Approved Dosing Info: Bio Avail ([1]; SC administration): 80%

ustekinumab
Approved Dosing Info: Bio Avail ([1]; SC administration): 78%

vedolizumab
Approved Dosing Info: Bio Avail ([1]; IV administration): 100%
